Reference: the supplement of paper PMC10567573

B1: PKD2L1 (parent)
chain: VFIFYYVVEEILELHIHRLRYLSS
B2: KCNAB2 (parent)
chain: YVDVVFANRPDPNTPMEETVRAMT

Variants of: B1
Assay: protein stability index of a GFP-peptide fusion (GPS, HEK-293T) (PSI 1-6); higher = more stable
Conditions: c terminus: a fixed tail appended
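Also: lentivirally expressed fusions sorted by FACS into six bins by GFP to DsRed ratio, PSI derived from sequencing read proportions per bin multiplied by bin number.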

Variant | protein stability index
Y5H | 3.91
Y21M | 4.01
I11Q | 3.96
E13C | 3.03
S24P | 2.94
R20I | 1.98
I16K | 2.34
R20V | 3.27
E10I | 2.56
E10L | 2.35
V7W | 2.54
I11N | 3.75
L14C | 2.19
I16L | 2.92
R18C | 2.63
L22G | 2.34
E9Y | 1.67
Y6K | 2.12
V7K | 3.16
E13R | 3.68
F2T | 3.77
S24T | 2.47
L14S | 2.8
E13Y | 1.93
I3P | 3.06
R18M | 3.01
L12P | 1.95
L14K | 2.29

Variants of: B2
Assay: as above
Conditions: c terminus: a fixed tail appended

Variant | protein stability index
Y1A | 4.19
Y1C | 2.52
Y1D | 4.52
Y1E | 4.6
Y1F | 1.94
Y1G | 4.12
Y1H | 4.05
Y1I | 2.7
Y1K | 3.77
Y1L | 3.4
Y1M | 3.69
Y1N | 4.65
Y1P | 4.42
Y1Q | 4.06
Y1R | 3.55
Y1S | 4.28
Y1T | 4.31
Y1V | 3.15
Y1W | 1.74
V2A | 2.96
V2C | 2.34
V2D | 4.91
V2E | 4.98
V2F | 2.81

Variant | protein stability index
V2G | 3.76
V2H | 2.39
V2I | 2.07
V2K | 4.33
V2L | 3.09
V2M | 3.61
V2N | 4.51
V2P | 3.69
V2Q | 3.32
V2R | 4.13
V2S | 4.24
V2T | 2.91
V2W | 2.5
V2Y | 3.07
D3A | 2
D3C | 2.31
D3E | 1.87
D3F | 2.71
D3G | 2.85
D3H | 2.07
D3I | 4.3
D3K | 2.13
D3L | 2.51
D3M | 3.61

Variant | protein stability index
D3N | 2.01
D3P | 1.2
D3Q | 1.91
D3R | 2.28
D3S | 2.99
D3T | 1.82
D3V | 2.48
D3W | 2.8
D3Y | 2.34
V4A | 1.98
V4C | 1.51
V4D | 2.26
V4E | 2.07
V4F | 2.3
V4G | 3.05
V4H | 1.39
V4I | 1.83
V4K | 2.31
V4L | 2.66
V4M | 2.87
V4N | 1.64
V4P | 1.87
V4Q | 1.71
V4R | 2.52

Variant | protein stability index
V4S | 1.67
V4T | 2.12
V4W | 2.33
V4Y | 1.85
V5A | 2.29
V5C | 1.9
V5D | 2.13
V5E | 2.5
V5F | 3.07
V5G | 2.49
V5H | 2.09
V5I | 2.09
V5K | 1.82
V5L | 2.2
V5M | 3.01
V5N | 2.06
V5P | 2.01
V5Q | 1.65
V5R | 2.45
V5S | 1.93
V5T | 2.12
V5W | 1.59
V5Y | 2.03
F6A | 2.79

Variant | protein stability index
F6C | 2.18
F6D | 4.17
F6E | 3.63
F6G | 3.16
F6H | 2.42
F6I | 1.99
F6K | 2.66
F6L | 2.15
F6M | 2.3
F6N | 3.01
F6P | 2.09
F6Q | 3.1
F6R | 2.05
F6S | 2.79
F6T | 3.11
F6V | 1.94
F6W | 3.77
F6Y | 2.13
A7C | 1.74
A7D | 2.02
A7E | 2.19
A7F | 3.08
A7G | 2.2
A7H | 2.09

Variant | protein stability index
A7I | 1.88
A7K | 1.64
A7L | 1.98
A7M | 2.16
A7N | 1.97
A7P | 2.14
A7Q | 2.15
A7R | 1.97
A7S | 2.13
A7T | 2.12
A7V | 3.18
A7W | 2.45
A7Y | 2.64
N8A | 2.69
N8C | 2.94
N8D | 1.79
N8E | 2.14
N8F | 2.85
N8G | 1.83
N8H | 1.76
N8I | 2.35
N8K | 1.7
N8L | 2.61
N8M | 3.09

Variant | protein stability index
N8P | 1.82
N8Q | 1.9
N8R | 2.3
N8S | 2.33
N8T | 2.68
N8V | 1.83
N8W | 2.85
N8Y | 2.88
R9A | 1.78
R9C | 1.6
R9D | 2.71
R9E | 2.15
R9F | 2.02
R9G | 2.17
R9H | 1.66
R9I | 2.07
R9K | 1.69
R9L | 2.27
R9M | 2.67
R9N | 2.22
R9P | 2.84
R9Q | 1.98
R9S | 2.76
R9T | 1.7

Variant | protein stability index
R9V | 2.96
R9W | 2.72
R9Y | 1.47
P10A | 1.84
P10C | 2.43
P10D | 2.47
P10E | 2.13
P10F | 2.8
P10G | 2.65
P10H | 2.12
P10I | 2.2
P10K | 2.27
P10L | 2.7
P10M | 2.62
P10N | 2.06
P10Q | 1.73
P10R | 2.13
P10S | 1.38
P10T | 2.17
P10V | 1.82
P10W | 3.14
P10Y | 1.69
D11A | 2.79
D11C | 1.77

Variant | protein stability index
D11E | 1.6
D11F | 2.46
D11G | 2.19
D11H | 2.28
D11I | 2.2
D11K | 2.05
D11L | 1.89
D11M | 2.04
D11N | 1.67
D11P | 1.67
D11Q | 2.5
D11R | 1.47
D11S | 1.39
D11T | 2.76
D11V | 2.53
D11W | 1.94
D11Y | 2.42
P12A | 2.27
P12C | 2.08
P12D | 1.65
P12E | 1.65
P12F | 2.02
P12G | 2.31
P12H | 1.37

Variant | protein stability index
P12I | 1.83
P12K | 2.16
P12L | 2.51
P12M | 2.03
P12N | 1.28
P12Q | 2.43
P12R | 1.46
P12S | 1.66
P12T | 1.56
P12V | 2.72
P12W | 2.04
P12Y | 2.72
N13A | 2
N13C | 1.89
N13D | 2.29
N13E | 2.5
N13F | 2.09
N13G | 2.14
N13H | 2.15
N13I | 2.76
N13K | 2.18
N13L | 1.96
N13M | 1.98
N13Q | 2.11

Variant | protein stability index
N13R | 1.98
N13S | 2.34
N13T | 1.3
N13V | 2.44
N13W | 2.88
N13Y | 2.31
T14A | 1.84
T14C | 1.99
T14D | 1.69
T14E | 1.7
T14F | 2.32
T14G | 2.04
T14H | 2.77
T14I | 3.12
T14K | 2.2
T14L | 2.37
T14M | 2.65
T14N | 3.02
T14P | 2.51
T14Q | 2.12
T14R | 2.23
T14S | 1.93
T14V | 1.56
T14W | 1.54

Variant | protein stability index
T14Y | 2.4
P15A | 2.34
P15C | 2.67
P15D | 1.49
P15E | 1.73
P15F | 2.47
P15G | 1.91
P15H | 1.35
P15I | 1.9
P15K | 2.72
P15L | 2.44
P15M | 2.28
P15N | 1.97
P15Q | 2.1
P15R | 2.52
P15S | 2.69
P15T | 1.94
P15V | 1.87
P15W | 1.78
P15Y | 2.21
M16A | 1.8
M16C | 1.82
M16D | 1.77
M16E | 2.02

Variant | protein stability index
M16F | 1.77
M16G | 1.95
M16H | 1.93
M16I | 1.64
M16K | 1.8
M16L | 1.86
M16N | 2.2
M16P | 1.91
M16Q | 2.27
M16R | 2.54
M16S | 2.42
M16T | 1.33
M16V | 1.65
M16W | 2.2
M16Y | 2.18
E17A | 1.86
E17C | 1.62
E17D | 2.12
